{
  "source": "paper PMC7591906",
  "about": "“pHLIP ICG for delineation of tumors and blood flow during fluorescence-guided surgery” (Scientific Reports, 2020)",
  "key": {"[1]": {"experiment": "pH-dependent insertion into POPC liposomes (circular dichroism at 222 nm)", "type": "physicochemical", "conditions": "5 µM pHLIP ICG, 750 µM POPC liposomes, CD 222 nm, 25.0°C, Henderson-Hasselbalch fit", "method": "(§1) POPC (1-palmitoyl-2-oleoyl-sn-glycero-3-phosphocholine, Avanti Polar Lipids, Inc.) liposomes were used in biophysical measurements to mimic cell membranes and investigate the pHLIP ICG interactions with lipid bilayers. Large unilamellar vesicles (LUVs) were prepared by extrusion. POPC dissolved in chloroform was desolvated in a rotary evaporator and placed under high vacuum for 2 hours to create a phospholipid film. Lipids were then rehydrated in phosphate buffer (pH8) and repeatedly extruded through membranes with a pore size of 100 nm to make LUVs.\nCircular dichroism (CD) measurements were employed to monitor the pH-dependent insertion of pHLIP ICG into the membrane of POPC liposomes and the formation of helical structure. […] CD spectra were recorded from 200 to 260 nm with steps of 1 nm. The pH-dependent insertion of pHLIP ICG into the lipid bilayer of POPC liposomes was studied by monitoring the changes in the molar ellipticity (measured in millidegrees) at 222 nm as a function of pH. After the addition of aliquots of citric acid, the pHs of solutions containing 5 μM pHLIP ICG and 750 µM POPC liposomes were measured using an Orion PerHecT ROSS Combination pH Micro Electrode and an Orion Dual Star pH and ISE Benchtop Meter before and after each spectrum measurement to ensure that equilibrium is achieved. […]"}, "[2]": {"experiment": "Kinetics of insertion into POPC liposomes (stopped-flow tryptophan fluorescence)", "type": "physicochemical", "conditions": "pH drop from pH 8 to pH 5, Trp fluorescence, bi-exponential fit, about 15% of final adjustment", "method": "as §1\nTo follow pHLIP ICG insertion into the lipid bilayer of POPC liposomes in real-time, kinetics measurements were performed using a SFM-300 mixing system (Bio-Logic Science Instruments) in combination with a MOS-450 spectrometer with its temperature control set to 25.0°C. pHLIP ICG pre-mixed with POPC liposomes in phosphate buffer at pH8 were mixed (5 ms dead time) with acid to drop the pH from pH8 to pH5 and promote pHLIP peptide insertion into the bilayers. The insertion process was monitored by recording changes of the tryptophan fluorescence of pHLIP peptide excited at 295 nm and using a cut off filter at 320 nm."}, "[3]": {"experiment": "Local tolerance/irritancy in New Zealand white rabbits (GLP)", "type": "in vivo", "conditions": "single 0.124 and 1.86 mg/kg, i.v., intra-arterial, perivenous and subcutaneous", "method": "The objective of this GLP study performed at CRL was to compare the i.v., intra-arterial, perivascular and subcutaneous routes for potential irritation following a single injection of pHLIP ICG in the rabbits.\nThe following parameters and end points were evaluated in this study: clinical signs, local irritation assessment, body weights (for dose calculation only), and histopathology of the injection sites. There were no clinical signs, local irritation or any microscopic changes associated with pHLIP ICG during the study."}},
  "note": "“Also recorded” adds a separate entry of the source. Peptide text beside a SMILES is read from it. * marks the point of attachment. X1 = CC1(C)C(/C=C/C=C/C=C/C=C2/N(CCCCCC(=O)NCCN3C(=O)CC(*)C3=O)c3ccc4ccccc4c3C2(C)C)=[N+](CCCCS(=O)(=O)[O-])c2ccc3ccccc3c21",
  "data": [
    {"smiles": "CC(C)C[C@H](NC(=O)[C@H](Cc1ccc(O)cc1)NC(=O)[C@H](C)NC(=O)[C@H](CCCNC(=N)N)NC(=O)[C@H](Cc1c[nH]c2ccccc12)NC(=O)[C@@H]1CCCN1C(=O)[C@H](CC(N)=O)NC(=O)[C@H](CCC(N)=O)NC(=O)[C@H](CC(=O)O)NC(=O)[C@H](CC(=O)O)NC(=O)[C@H](CSC1CC(=O)N(CCNC(=O)CCCCCN2/C(=C/C=C/C=C/C=C/C3=[N+](CCCCS(=O)(=O)[O-])c4ccc5ccccc5c4C3(C)C)C(C)(C)c3c2ccc2ccccc32)C1=O)NC(=O)[C@H](C)N)C(=O)N[C@@H](CC(=O)O)C(=O)N[C@@H](CC(C)C)C(=O)N[C@@H](CC(C)C)C(=O)N[C@@H](Cc1ccccc1)C(=O)N1CCC[C@H]1C(=O)N[C@H](C(=O)N[C@@H](CC(=O)O)C(=O)N[C@H](C(=O)N[C@@H](CC(C)C)C(=O)N[C@@H](CC(C)C)C(=O)N[C@@H](CC(C)C)C(=O)N[C@@H](CC(=O)O)C(=O)N[C@@H](CC(C)C)C(=O)N[C@@H](CC(C)C)C(=O)N[C@@H](Cc1c[nH]c2ccccc12)C(=O)N[C@@H](C)C(=O)O)[C@@H](C)O)[C@@H](C)O", "note": "(stereo partly drawn) [pHLIP ICG] (H-AC(X1)DDQNPWRAYLDLLFPTDTLLLDLLWA-OH)", "values": [
      {"measurement": "Midpoint of the transition (pK) of insertion into liposomes", "setting": "[1]", "value": 6.3, "unit": "pH"},
      {"measurement": "Rate of insertion into lipid bilayer, slow component", "setting": "[2]", "value": 0.077, "unit": "s⁻¹"},
      {"measurement": "Local tolerance", "setting": "[3]", "value": "well tolerated; also recorded: well-tolerated and did not result in any pHLIP ICG-related changes"}
    ]}
  ]
}
